The record followed here is publication PMC10798875 (The Journal of Cell Biology, 2024).

The target in test [1] is karyopherinα (Kapα; importinα1; KPNA2), full-length human (human, UniProt P52292 1-529). The experiment in a line: MST.
Test [2] has as its target RanGTP (wild-type Ran loaded with GTP) (UniProt P62826 1-216). The experiment in a line: MST.

B1: cellular apoptosis susceptibility protein (CAS), human wild type (natural protein)
chain: MELSDANLQTLTEYLKKTLDPDPAIRRPAEKFLESVEGNQNYPLLLLTLLEKSQDNVIKVCASVTFKNYIKRNWRIVEDEPNKICEADRVAIKANIVHLMLSSPEQIQKQLSDAISIIGREDFPQKWPDLLTEMVNRFQSGDFHVINGVLRTAHSLFKRYRHEFKSNELWTEIKLVLDAFALPLTNLFKATIELCSTHANDASALRILFSSLILISKLFYSLNFQDLPEFFEDNMETWMNNFHTLLTLDNKLLQTDDEEEAGLLELLKSQICDNAALYAQKYDEEFQRYLPRFVTAIWNLLVTTGQEVKYDLLVSNAIQFLASVCERPHYKNLFEDQNTLTSICEKVIVPNMEFRAADEEAFEDNSEEYIRRDLEGSDIDTRRRAACDLVRGLCKFFEGPVTGIFSGYVNSMLQEYAKNPSVNWKHKDAAIYLVTSLASKAQTQKHGITQANELVNLTEFFVNHILPDLKSANVNEFPVLKADGIKYIMIFRNQVPKEHLLVSIPLLINHLQAESIVVHTYAAHALERLFTMRGPNNATLFTAAEIAPFVEILLTNLFKALTLPGSSENEYIMKAIMRSFSLLQEAIIPYIPTLITQLTQKLLAVSKNPSKPHFNHYMFEAICLSIRITCKANPAAVVNFEEALFLVFTEILQNDVQEFIPYVFQVMSLLLETHKNDIPSSYMALFPHLLQPVLWERTGNIPALVRLLQAFLERGSNTIASAAADKIPGLLGVFQKLIASKANDHQGFYLLNSIIEHMPPESVDQYRKQIFILLFQRLQNSKTTKFIKSFLVFINLYCIKYGALALQEIFDGIQPKMFGMVLEKIIIPEIQKVSGNVEKKICAVGITKLLTECPPMMDTEYTKLWTPLLQSLIGLFELPEDDTIPDEEHFIDIEDTPGYQTAFSQLAFAGKKEHDPVGQMVNNPKIHLAQSLHKLSTACPGRVPSMVSTSLNAEALQYLQGYLQAASVTLL
Turning to B1, the Kd in test [1] came to 0.0093 ± 0.0029 µM; in test [2] it was 1.4 ± 0.4 µM.

B2: ∆40NCAS (CAS lacking the first 40 amino acids of the N-terminus) (domain or fragment)
chain: NYPLLLLTLLEKSQDNVIKVCASVTFKNYIKRNWRIVEDEPNKICEADRVAIKANIVHLMLSSPEQIQKQLSDAISIIGREDFPQKWPDLLTEMVNRFQSGDFHVINGVLRTAHSLFKRYRHEFKSNELWTEIKLVLDAFALPLTNLFKATIELCSTHANDASALRILFSSLILISKLFYSLNFQDLPEFFEDNMETWMNNFHTLLTLDNKLLQTDDEEEAGLLELLKSQICDNAALYAQKYDEEFQRYLPRFVTAIWNLLVTTGQEVKYDLLVSNAIQFLASVCERPHYKNLFEDQNTLTSICEKVIVPNMEFRAADEEAFEDNSEEYIRRDLEGSDIDTRRRAACDLVRGLCKFFEGPVTGIFSGYVNSMLQEYAKNPSVNWKHKDAAIYLVTSLASKAQTQKHGITQANELVNLTEFFVNHILPDLKSANVNEFPVLKADGIKYIMIFRNQVPKEHLLVSIPLLINHLQAESIVVHTYAAHALERLFTMRGPNNATLFTAAEIAPFVEILLTNLFKALTLPGSSENEYIMKAIMRSFSLLQEAIIPYIPTLITQLTQKLLAVSKNPSKPHFNHYMFEAICLSIRITCKANPAAVVNFEEALFLVFTEILQNDVQEFIPYVFQVMSLLLETHKNDIPSSYMALFPHLLQPVLWERTGNIPALVRLLQAFLERGSNTIASAAADKIPGLLGVFQKLIASKANDHQGFYLLNSIIEHMPPESVDQYRKQIFILLFQRLQNSKTTKFIKSFLVFINLYCIKYGALALQEIFDGIQPKMFGMVLEKIIIPEIQKVSGNVEKKICAVGITKLLTECPPMMDTEYTKLWTPLLQSLIGLFELPEDDTIPDEEHFIDIEDTPGYQTAFSQLAFAGKKEHDPVGQMVNNPKIHLAQSLHKLSTACPGRVPSMVSTSLNAEALQYLQGYLQAASVTLL
Turning to B2, the binding result in test [1] is on record as “binds”.

By Kd is commonly meant the constant that tells how readily two partners part at equilibrium. A low value points to higher affinity.
